According to paper PMC11055865:

Target: MCM8-9 complex (FLAG-tagged MCM8 and MBP-tagged MCM9), wild type (human) (UniProt Q9UJA3)
Assay: mass photometry; MCM8-9 preincubated with HROB (both 1 μM) 10 min at room temperature in 25 mM Tris-HCl pH 7.5, 3 mM EDTA, 50 mM NaCl, then rapidly diluted to 200 nM; complex largely fell apart upon dilution

MCM8-9 complex (FLAG-tagged MCM8 and MBP-tagged MCM9), wild type (human), sequence (Q9UJA3 whole entry, chain 1 of 2): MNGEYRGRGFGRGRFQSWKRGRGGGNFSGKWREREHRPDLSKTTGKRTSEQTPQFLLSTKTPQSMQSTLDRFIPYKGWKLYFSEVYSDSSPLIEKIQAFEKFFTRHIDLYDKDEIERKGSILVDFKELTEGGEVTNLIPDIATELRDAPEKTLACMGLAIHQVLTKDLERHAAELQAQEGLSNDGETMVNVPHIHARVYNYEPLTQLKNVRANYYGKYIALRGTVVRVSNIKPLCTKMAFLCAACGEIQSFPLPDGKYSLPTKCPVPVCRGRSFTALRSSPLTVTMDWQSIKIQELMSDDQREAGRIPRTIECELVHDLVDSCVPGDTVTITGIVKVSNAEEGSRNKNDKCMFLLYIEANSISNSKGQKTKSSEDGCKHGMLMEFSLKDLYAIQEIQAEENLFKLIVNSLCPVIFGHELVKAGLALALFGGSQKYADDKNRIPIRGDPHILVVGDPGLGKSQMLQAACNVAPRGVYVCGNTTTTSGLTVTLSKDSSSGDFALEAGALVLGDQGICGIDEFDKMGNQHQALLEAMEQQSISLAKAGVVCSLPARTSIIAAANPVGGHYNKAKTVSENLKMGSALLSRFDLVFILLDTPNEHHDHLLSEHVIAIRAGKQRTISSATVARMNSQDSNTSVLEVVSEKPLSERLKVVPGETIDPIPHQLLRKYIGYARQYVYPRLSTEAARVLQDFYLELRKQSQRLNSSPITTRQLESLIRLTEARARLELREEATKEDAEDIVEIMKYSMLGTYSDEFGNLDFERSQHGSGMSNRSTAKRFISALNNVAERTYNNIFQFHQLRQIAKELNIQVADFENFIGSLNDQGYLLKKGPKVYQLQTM
MCM8-9 complex (FLAG-tagged MCM8 and MBP-tagged MCM9), wild type (human), sequence (Q9NXL9 whole entry, chain 2 of 2, further chain): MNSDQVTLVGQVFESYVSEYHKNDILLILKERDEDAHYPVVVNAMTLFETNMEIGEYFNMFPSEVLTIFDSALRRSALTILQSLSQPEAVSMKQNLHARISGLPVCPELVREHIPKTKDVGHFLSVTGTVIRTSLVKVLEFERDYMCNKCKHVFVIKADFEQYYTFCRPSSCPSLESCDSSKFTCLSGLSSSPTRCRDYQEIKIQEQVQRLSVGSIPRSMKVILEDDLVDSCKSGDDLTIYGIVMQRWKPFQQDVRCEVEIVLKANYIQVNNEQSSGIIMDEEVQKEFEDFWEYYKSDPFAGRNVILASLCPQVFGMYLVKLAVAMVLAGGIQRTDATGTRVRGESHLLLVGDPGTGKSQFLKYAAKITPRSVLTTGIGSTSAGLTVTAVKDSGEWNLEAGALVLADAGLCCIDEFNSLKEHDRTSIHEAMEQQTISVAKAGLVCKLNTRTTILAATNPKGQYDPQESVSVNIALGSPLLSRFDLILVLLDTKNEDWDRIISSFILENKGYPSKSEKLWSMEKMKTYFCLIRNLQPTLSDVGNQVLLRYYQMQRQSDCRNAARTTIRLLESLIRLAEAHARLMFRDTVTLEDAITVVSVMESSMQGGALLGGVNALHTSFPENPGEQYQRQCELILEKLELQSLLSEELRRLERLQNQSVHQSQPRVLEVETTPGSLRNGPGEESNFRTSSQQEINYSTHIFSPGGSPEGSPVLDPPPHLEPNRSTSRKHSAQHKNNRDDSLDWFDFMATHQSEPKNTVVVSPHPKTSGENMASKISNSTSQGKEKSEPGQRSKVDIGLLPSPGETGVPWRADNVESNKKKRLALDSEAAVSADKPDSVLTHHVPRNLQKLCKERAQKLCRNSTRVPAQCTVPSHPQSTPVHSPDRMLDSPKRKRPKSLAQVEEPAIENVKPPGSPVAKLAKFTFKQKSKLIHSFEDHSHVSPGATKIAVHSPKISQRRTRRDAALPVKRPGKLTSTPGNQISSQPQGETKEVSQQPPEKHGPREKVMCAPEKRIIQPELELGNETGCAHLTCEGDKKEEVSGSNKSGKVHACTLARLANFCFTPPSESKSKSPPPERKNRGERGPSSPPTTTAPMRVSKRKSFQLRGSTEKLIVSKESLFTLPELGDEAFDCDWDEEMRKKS

Substance: HROB-FLAG (wild type HROB, homologous recombination factor with OB-fold) (from UniProt Q8N3J3-4 1-646) (natural protein)
- stoichiometry N (HROB per MCM8-9 heterodimer): 1
